Experimental data taken from PMC7024214.

Molecular target: elastase (UniProt P00772)

Substance	inhibition of the activity of elastase (IC50) [nM]
tutuilamide A (peptide)	4
tutuilamide B (peptide)	3.6
